{
  "source": "paper PMC6642096",
  "about": "(Nature Communications, 2019)",
  "binders": {"B1": {"name": "vIRF-1-SmB (natural protein)", "chain": "MDPGQRPNPFGAPGAIPKKPCLSQGSPGTSGSGAPCDEPSRSESPGEGPSGTGGSAAAGDITRQAVVAAITEWSRTRQLRISTGASEGKASIKDWIVCQVNSGKFPGVEWEDEERTRFRIPVTPLADPCFEWRRDGELGVVYIRERGNMPVDASFKGTRGRRRMLAALRRTRGLQEIGKGISQDGHHFLVFRVRKPEEEQCVECGVVAGAVHDFNNMARLLQEGFFSPGQCLPGEIVTPVPSCTTAEGQEAVIDWGRLFIRMYYNGEQVHELLTTSQSGCRISSALRRDPAVHYCAVGSPGQVWLPNVPNLACEIAKRELCDTLDACAKGILLTSSCNGIFCVCYHNGPVHFIGNTVPPDSGPLLLPQGKPTRIFNPNTFLVGLANSPLPAPSHVTCPLVKLWLGKPVAVGKLEPHAPSPRDFAARCSNFSDACVVLEIMPKPLWDAMQ", "notes": "also called vIRF-1-SmB (NanoBiT Small BiT fusion); source: 293T, transiently transfected, in cells; not shown: Small BiT (SmB), C-terminal, kept"}},
  "target": "T1, LgB-NIX (UniProt O60238 1-219)",
  "T1 construct": "also called NIX (NanoBiT Large BiT fusion); not shown: Large BiT (LgB), N-terminal, kept",
  "T1 sequence (O60238 whole entry, the tested form may be a part)": "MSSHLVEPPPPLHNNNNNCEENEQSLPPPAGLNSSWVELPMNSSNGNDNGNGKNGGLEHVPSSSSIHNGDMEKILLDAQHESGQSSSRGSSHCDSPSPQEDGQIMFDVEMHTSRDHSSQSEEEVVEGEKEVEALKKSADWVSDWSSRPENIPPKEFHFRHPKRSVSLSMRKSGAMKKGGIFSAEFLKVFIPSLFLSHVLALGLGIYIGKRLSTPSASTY",
  "test": "split reporter (BiFC, NanoBiT)",
  "details": "partners not purified",
  "data": [
    {"binder": "B1", "values": [
      {"measurement": "fold luminescence against HT-SmB with LgB-NIX", "value": 10, "unit": "fold"}
    ]}
  ]
}
